Data as given in article PMC4278681.

T1: N-HvGR-RBP1 (RRM domain) (Hordeum vulgare L., UniProt J7FTI7 1-92)
T1 sequence: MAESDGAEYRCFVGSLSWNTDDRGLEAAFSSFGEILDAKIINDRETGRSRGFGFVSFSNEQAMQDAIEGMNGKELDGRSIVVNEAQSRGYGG


Target: T1, N-HvGR-RBP1 (RRM domain)
Experiment: NMR

Binder	binding result
TTCTGA (ssDNA) [TTCTGA 6-mer]	binds
TTCTGT (ssDNA) [TTCTGT 6-mer]	binds
